Assay results: the supplement of paper PMC7877785
± gives the uncertainty stated by the source.

Experiment: self-splicing fitness, log relative to wild type (ln ratio); higher = more splicing; Tetrahymena group I intron in knt gene, E. coli kanamycin selection, DiMSum; sequences stand for … in CUCUCU…GGAGGGAAAAGUUAUCAGGCAUGCACCUGGUAGCUAGUCUUUAAACCAAUAGAUUGCAUCGGUUUAAAAGGCAAGACCGUCAAAUUGCGGGAAAGGGGUCAACAGCCGUUCAGUACCAAGUCUCAGGGGAAACUUUGAGAUGGCCUUGCAAAGGGUAUGGUAAUAAGCUGACGGACAUGGUCCUAACCACGCAGCCAAGUCCUAAGUCAACAGAUCUUCUGUUGAUAUGGAUGCAGUUCACAGACUAAAUGUCGGUCGGGGAAGAUGUAUUCUUCUCAUAAGAUAUAGUCGGACCUCUCCUUAAUGGGAGCUAGCGGAUGAAGUGAUGCAACACUGGAGCCGCUGGGAACUAAUUUGUAUGCGAAAGUAUAUUGAUUAGUUUUGGAGUACUCGUGGUCG
Procedure, shortened: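 Pooled colonies went to amplicon sequencing on an Illumina HiSeq 2500 after six replicate transformations. The plates were LB agar with 100 μg/mL carbenicillin, 50 μM IPTG and 0.2% rhamnose, with or without 25 μg/mL kanamycin, incubated overnight at 37°C or 30°C. The E. coli BL21(DE3) library had all eight P1ex-region intron nucleotides randomised, the intron placed in the knt kanamycin-resistance gene on pET-22b(+). DiMSum fitness is the error-weighted combination of replicate fold changes, kanamycin against none, normalised to wild type.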

Row | Sequence | self-splicing fitness (ln) (30 °C) | self-splicing fitness (ln) (37 °C)
1 | CUCCAGCAAUAUUACGCUUU | -2.78 ± 0.19 | -2.8 ± 0.26
2 | UAUCAGCAAUAUUACGACAA | -0.495 ± 0.086 | 0.237 ± 0.097
3 | GGGCAGCAAUAUUACGUGAU | -1.61 ± 0.11 | 0.0478 ± 0.11
4 | GGUUAGCAAUAUUACGUUAG | -2.34 ± 0.13 | -1.69 ± 0.19
5 | UGUAAGCAAUAUUACGGGCG | 0.00753 ± 0.092 | 0.237 ± 0.11
6 | UCGAAGCAAUAUUACGCUCA | -2.11 ± 0.19 | -0.861 ± 0.23
7 | CGCUAGCAAUAUUACGUGCU | -1.82 ± 0.16 | -1.63 ± 0.18
8 | AGAAAGCAAUAUUACGCGUU | -2.71 ± 0.16 | -2.34 ± 0.17
9 | CCCGAGCAAUAUUACGUAGU | -3.11 ± 0.15 | -2.58 ± 0.19
10 | AAGUAGCAAUAUUACGACGG | -1.74 ± 0.29 | -1.66 ± 0.34
11 | ACUUAGCAAUAUUACGACCG | -0.573 ± 0.18 | -0.217 ± 0.26
12 | GGGCAGCAAUAUUACGAUUG | -3.83 ± 0.4 | -2.84 ± 0.27
13 | UAUCAGCAAUAUUACGUUUU | -2.74 ± 0.084 | -1.4 ± 0.085
14 | GAUAAGCAAUAUUACGAUGU | -0.525 ± 0.082 | -0.545 ± 0.1
15 | GUCCAGCAAUAUUACGCCCU | -0.888 ± 0.13 | -0.617 ± 0.18
16 | CCUAAGCAAUAUUACGCACU | -2.71 ± 0.23 | -2.96 ± 0.23
17 | CUUGAGCAAUAUUACGGAAU | -2.85 ± 0.41 | -2.3 ± 0.48
18 | UGCAAGCAAUAUUACGGCCA | -0.252 ± 0.08 | 1.07 ± 0.14
19 | UCCGAGCAAUAUUACGCCGA | -1.56 ± 0.23 | -0.047 ± 0.16
20 | UCCGAGCAAUAUUACGUACA | -2.89 ± 0.33 | 
21 | AGGUAGCAAUAUUACGCUAU | -3.873 ± 0.037 | -3.13 ± 0.047
22 | CUUGAGCAAUAUUACGUCCG | -1.86 ± 0.19 | -0.79 ± 0.19

Row | Sequence | self-splicing fitness (ln) (30 °C) | self-splicing fitness (ln) (37 °C)
23 | GCAUAGCAAUAUUACGGCGC | -0.822 ± 0.17 | -0.485 ± 0.2
24 | UCAAAGCAAUAUUACGCGCA | -0.442 ± 0.066 | -0.207 ± 0.077
25 | UAUCAGCAAUAUUACGCGGC | -2.77 ± 0.31 | -1.62 ± 0.24
26 | UGUAAGCAAUAUUACGCGCC | -1.18 ± 0.1 | -0.53 ± 0.13
27 | ACCAAGCAAUAUUACGCAAU | -2.01 ± 0.1 | -1.04 ± 0.1
28 | GAUCAGCAAUAUUACGGACU | -0.52 ± 0.12 | -0.894 ± 0.13
29 | UAAUAGCAAUAUUACGUCGU | -2.91 ± 0.34 | -0.94 ± 0.23
30 | UUGAAGCAAUAUUACGAGGC | -3.28 ± 0.39 | -1.84 ± 0.47
31 | GAGCAGCAAUAUUACGUUGG | -0.945 ± 0.19 | -2.43 ± 0.23
32 | UGGUAGCAAUAUUACGCCCA | -0.775 ± 0.21 | -1.14 ± 0.23
33 | GUACAGCAAUAUUACGUAUA | -1.77 ± 0.11 | -1 ± 0.12
34 | GGGGAGCAAUAUUACGCGGC |  | -1.24 ± 0.49
35 | CCGGAGCAAUAUUACGACAA | -3.72 ± 0.43 | -2.16 ± 0.3
36 | UGUCAGCAAUAUUACGGCAC | -2.42 ± 0.35 | 
37 | CUACAGCAAUAUUACGGCGA | -2.97 ± 0.39 | -2.91 ± 0.27
38 | GCGUAGCAAUAUUACGUAGU | -2.27 ± 0.21 | -0.677 ± 0.14
39 | GACGAGCAAUAUUACGCGCG | -3.15 ± 0.16 | -2.7 ± 0.25
40 | UGGUAGCAAUAUUACGUGAU | -2.76 ± 0.25 | -1.34 ± 0.16
41 | UCUAAGCAAUAUUACGUAUC | -4.13 ± 0.24 | -3.01 ± 0.21
42 | ACCGAGCAAUAUUACGGUGA | -3.07 ± 0.18 | -1.48 ± 0.13
43 | CAGGAGCAAUAUUACGCACG | -1.71 ± 0.088 | 0.544 ± 0.15
